Laboratory results: the supplement of paper PMC10201428
± gives the standard deviation of the averaged measurements.

Assays:
[1] = system: VchCAST RNA-guided transposition machinery (E. coli BL21(DE3) host, lacZ target); test: relative integration efficiency (T-RL orientation) vs wild-type transposon end (log2 (normalized fold change)); transposon end mutated: right end (5 bp flank + 75 bp right end); higher = more efficient transposition
Method in brief: (§1)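 Relative integration efficiency is a fold change of output over input barcode abundance, normalised to reference barcodes and log-transformed. Input plasmids and genomic integration junctions were PCR-amplified and Illumina-sequenced from E. coli BL21(DE3) co-transformed with a T7-driven effector plasmid and pUC57 donor pools of 1549 left-end or 1849 right-end transposon variants. Plating was done with 0.1 mM IPTG at 37°C for 18 h, with two biological output replicates and four reference barcodes.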

[2] = system: VchCAST RNA-guided transposition machinery (E. coli BL21(DE3) host, lacZ target); test: relative integration efficiency (T-LR orientation) vs wild-type transposon end (log2 (normalized fold change)); transposon end mutated: right end (5 bp flank + 75 bp right end); higher = more efficient transposition
Method in brief: as §1

Row | Sequence | relative integration efficiency (log2) [1] | relative integration efficiency (log2) [2]
1 | ACATTTGTTGATACAACCATAAAATGATAATTACTCTGATCATAGTCAGCACCCATAAATTGATAATTATCACACCCATAAATTGATATTGCACCAACATTGCTACGACCCGTATTCGCACCGACAC | -4.51 ± 0.36 | -0.456 ± 0.19
2 | ACATTTGTTGATACAACCATAAAATGATAATTACTCTGATCATAGTCAGCACCCATAAATTGATAATTATCAGTGGGTATTTAACTATAACGACCAACATTGCTACGACCCGTATTCGCACCGACAC | -2.61 ± 0.47 | 0.537 ± 0.24
3 | ACATTTGTTGATACAACCATAAAATGATAATTACTCTGATCATCACCCATAAATTGATAATTATCACACCCATAAATTGATATTGCAGTCAGACCAACATTGCTACGACCCGTATTCGCACCGACAC | -4.28 ± 0.15 | -2.15 ± 0.28
4 | ACATTTGTTGATACAACCATAAAATGATAATTACTCTGATCATCACCCATAAATTGATAATTATCAGTGGGTATTTAACTATAACGAGTCAGACCAACATTGCTACGACCCGTATTCGCACCGACAC | -3.53 ± 0.084 | -0.42 ± 0.11
5 | ACATTTGTTGATACAACCATAAAATGATAATTACTCTGCACCCATAAATTGATAATTATCACACCCATAAATTGATATTGCATCATAGTCAGACCAACATTGCTACGACCCGTATTCGCACCGACAC | -3.62 ± 0.15 | 0.55 ± 0.061
6 | ACATTTGTTGATACAACCATAAAATGATAATTACTCTGCACCCATAAATTGATAATTATCAGTGGGTATTTAACTATAACGATCATAGTCAGACCAACATTGCTACGACCCGTATTCGCACCGACAC | -2.05 ± 0.21 | 0.872 ± 0.43
7 | ACATTTGTTGATACAACCATAAAATGATAATTACTGCCATAAATTGATAATTATCACACCCATAAATTGATATTGCCTCTGATCATAGTCAGACCAACATTGCTACGACCCGTATTCGCACCGACAC | -0.109 ± 0.19 | -0.602 ± 0.32
8 | ACATTTGTTGATACAACCATAAAATGATAATTACTGGGATAAATTGATAATTATCACACCCATAAATTGATATTGCCTCTGATCATAGTCAGACCAACATTGCTACGACCCGTATTCGCACCGACAC | -0.454 ± 0.059 | -0.993 ± 0.59
9 | ACATTTGTTGATACAACCATAAAATGATAATTAGAAACCATAATTGATAATTATCACACCCATAAATTGATATTGCCTCTGATCATAGTCAGACCAACATTGCTACGACCCGTATTCGCACCGACAC | -3.59 ± 0.08 | -2.38 ± 0.52
10 | ACATTTGTTGATACAACCATAAAATGATAATTAGAAACCATACGCTGAAATAATCACACCCATAAATTGATATTGCCTCTGATCATAGTCAGACCAACATTGCTACGACCCGTATTCGCACCGACAC | -3.5 ± 0.081 | -1.54 ± 0.65
11 | ACATTTGTTGATACAACCATAAAATGATAATTAGACCCCATAATTGATAATTATCACACCCATAAATTGATATTGCCTCTGATCATAGTCAGACCAACATTGCTACGACCCGTATTCGCACCGACAC | -3.4826 ± 0.0031 | -3.27 ± 0.54
12 | ACATTTGTTGATACAACCATAAAATGATAATTAGTCCCATAAATTGATAATTATCACACCCATAAATTGATATTGCCTCTGATCATAGTCAGACCAACATTGCTACGACCCGTATTCGCACCGACAC | -0.921 ± 0.049 | -0.924 ± 0.37
13 | ACATTTGTTGATACAACCATAAAATGATAATTAGTGGCATAAATTGATAATTATCACACCCATAAATTGATATTGCCTCTGATCATAGTCAGACCAACATTGCTACGACCCGTATTCGCACCGACAC | -1.91 ± 0.16 | -1.87 ± 0.24
14 | ACATTTGTTGATACAACCATAAAATGATAATTAGTGGGTATTTAACTATTAATTCACACCCATAAATTGATATTGCCTCTGATCATAGTCAGACCAACATTGCTACGACCCGTATTCGCACCGACAC | -3.76 ± 0.071 | -3.02 ± 0.35
15 | ACATTTGTTGATACAACCATAAAATGATAATTAGTGGGTATTTAACTATTAATTCAGTGGGTATTTAACTATAACGCTCTGATCATAGTCAGACCAACATTGCTACGACCCGTATTCGCACCGACAC | -2.37 ± 0.12 | 1.17 ± 0.31
